Assay [1] has as its target Str enolase 137/363–4 (ΔN432-K435) (Streptococcus pyogenes) (UniProt P69949).
Assay [2] has the same target. In words: AUC; sedimentation velocity, Beckman XL-I, 20°C, 30 000-37 000 RPM, TME-SO4 (50 mM Tris, 1 mM MgSO4, 0.1 mM EDTA, 44 mN H2SO4, pH 7.4); c(s) in Sedfit; octamer to 8 monomers.
Assay [3] concerns the target enolase from Streptococcus pyogenes F137L/E363G (Streptococcus pyogenes) (UniProt P69949).
Assay [4] shares this target. In words: AUC; sedimentation velocity, Beckman XL-I, 20°C, 30 000-37 000 RPM, TME-SO4 (50 mM Tris, 1 mM MgSO4, 0.1 mM EDTA, 44 mN H2SO4, pH 7.4); c(s) in Sedfit; octamer to 8 monomers.
Assay [5] concerns the target Str enolase 137/363–5 (ΔY431-K435) (Streptococcus pyogenes) (UniProt P69949).
Assay [6] shares this target. In words: AUC; sedimentation velocity, Beckman XL-I, 20°C, 30 000-37 000 RPM, TME-SO4 (50 mM Tris, 1 mM MgSO4, 0.1 mM EDTA, 44 mN H2SO4, pH 7.4); c(s) in Sedfit; octamer to 8 monomers.
The target of assay [7] is Str enolase 137/363–6 (ΔF430-K435) (Streptococcus pyogenes) (UniProt P69949).
For assay [8] the target is unchanged. The source holds these as a separate data set.
The target of assay [9] is Str enolase DB F137L (Streptococcus pyogenes) (UniProt P69949).
For assay [10] the target is unchanged. The assay is described as follows: AUC; sedimentation velocity, Beckman XL-I, 20°C, 30 000-37 000 RPM, TME-SO4 (50 mM Tris, 1 mM MgSO4, 0.1 mM EDTA, 44 mN H2SO4, pH 7.4); c(s) in Sedfit; octamer to 8 monomers.
Assay [11] concerns the target Str enolase 137/363–3 (ΔL433-K435) (Streptococcus pyogenes) (UniProt P69949).
Assay [12] has the same target. In words: AUC; sedimentation velocity, Beckman XL-I, 20°C, 30 000-37 000 RPM, TME-SO4 (50 mM Tris, 1 mM MgSO4, 0.1 mM EDTA, 44 mN H2SO4, pH 7.4); c(s) in Sedfit; octamer to 8 monomers.
Assay [13] deals with Str enolase DB E363G (Streptococcus pyogenes) (UniProt P69949).
The target is the same in assay [14]. The assay is described as follows: AUC; sedimentation velocity, Beckman XL-I, 20°C, 30 000-37 000 RPM, TME-SO4 (50 mM Tris, 1 mM MgSO4, 0.1 mM EDTA, 44 mN H2SO4, pH 7.4); c(s) in Sedfit; octamer to 8 monomers.
The target of assay [15] is Str enolase 137/363–2 (ΔK434-K435) (Streptococcus pyogenes) (UniProt P69949).
The target is the same in assay [16]. In words: AUC; sedimentation velocity, Beckman XL-I, 20°C, 30 000-37 000 RPM, TME-SO4 (50 mM Tris, 1 mM MgSO4, 0.1 mM EDTA, 44 mN H2SO4, pH 7.4); c(s) in Sedfit; octamer to 8 monomers.
Assay [17] concerns the target Str enolase 137/363–8 (ΔK428-K435) (Streptococcus pyogenes) (UniProt P69949).
The target is the same in assay [18]. This is another data set of the same source.
The target in assay [19] is Str enolase 137/363–1 (ΔK435) (Streptococcus pyogenes) (UniProt P69949).
Assay [20] shares this target. The assay is described as follows: AUC; sedimentation velocity, Beckman XL-I, 20°C, 30 000-37 000 RPM, TME-SO4 (50 mM Tris, 1 mM MgSO4, 0.1 mM EDTA, 44 mN H2SO4, pH 7.4); c(s) in Sedfit; octamer to 8 monomers.

“Str enolase 137/363–4 (ΔN432-K435) (from UniProt P69949 1-431) (enzyme)” displayed a Molecular Activity (2-phosphoglycerate to phosphoenolpyruvate, 20°C), taken as the amount of octamer in assay [1] of 27 min⁻¹. The same substance had a stoichiometry N in assay [2] of 8.

In turn, “enolase from Streptococcus pyogenes F137L/E363G (from UniProt P69949 1-435) (enzyme)” gave a Molecular Activity (2-phosphoglycerate to phosphoenolpyruvate, 20°C), taken as the amount of octamer in assay [3] of 5250 min⁻¹. The stoichiometry N in assay [4] came out at 8.

For the substance “Str enolase 137/363–5 (ΔY431-K435) (from UniProt P69949 1-430) (enzyme)”, the Molecular Activity (2-phosphoglycerate to phosphoenolpyruvate, 20°C), taken as the amount of octamer in [5] is 0.36 min⁻¹. Further, the stoichiometry N in assay [6] was 8.

On to “Str enolase 137/363–6 (ΔF430-K435) (from UniProt P69949 1-429) (enzyme)”, for which, in [7], the Molecular Activity (2-phosphoglycerate to phosphoenolpyruvate, 20°C), taken as the amount of octamer is 0.22 min⁻¹. Further, the total amount of octamer estimated from activity assays, as percent of the concentration of the Str enolase DB in [8] was 0.0002%.

“Str enolase DB F137L (from UniProt P69949 1-435) (enzyme)” gave a Molecular Activity (2-phosphoglycerate to phosphoenolpyruvate, 20°C), taken as the amount of octamer in assay [9] of 7160 min⁻¹. The same substance yielded a stoichiometry N in assay [10] of 8.

“Str enolase 137/363–3 (ΔL433-K435) (from UniProt P69949 1-432) (enzyme)” yielded a Molecular Activity (2-phosphoglycerate to phosphoenolpyruvate, 20°C), taken as the amount of octamer in [11] of 497 min⁻¹. Besides, the stoichiometry N in assay [12] came out at 8.

“Str enolase DB E363G (from UniProt P69949 1-435) (enzyme)” yielded a Molecular Activity (2-phosphoglycerate to phosphoenolpyruvate, 20°C), taken as the amount of octamer in [13] of 8460 min⁻¹. The substance also came in with a stoichiometry N in assay [14] of 8.

As for “Str enolase 137/363–2 (ΔK434-K435) (from UniProt P69949 1-433) (enzyme)”, the Molecular Activity (2-phosphoglycerate to phosphoenolpyruvate, 20°C), taken as the amount of octamer in assay [15] came out at 1730 min⁻¹. Further, the stoichiometry N in assay [16] turned out to be 8.

For “Str enolase 137/363–8 (ΔK428-K435) (from UniProt P69949 1-427) (enzyme)”, the Molecular Activity (2-phosphoglycerate to phosphoenolpyruvate, 20°C), taken as the amount of octamer in assay [17] was 0.08 min⁻¹. Further, the total amount of octamer estimated from activity assays, as percent of the concentration of the Str enolase DB in assay [18] is 0.0002%.

“Str enolase 137/363–1 (ΔK435) (from UniProt P69949 1-434) (enzyme)” came in with a Molecular Activity (2-phosphoglycerate to phosphoenolpyruvate, 20°C), taken as the amount of octamer in assay [19] of 4040 min⁻¹. In assay [20], this substance had a stoichiometry N of 8.

Usually stoichiometry N stands for the number of molecules, sites or subunits per partner or assembly.

The record behind these values is article PMC4546058.
